Patent US9657062B2, “Ghrelin analogues” (Zealand Pharma A/S, priority 2012, dated 2017)
The star is where a group is joined. Octanoyl = CCCCCCCC(=O)*; Octyl = CCCCCCCC*

B1: H-PS-S(octanoyl)-FLSPEHQRVQQRSESKKPPAKLQPR-NH2 (peptide)
peptide: H-PSS(Octanoyl)FLSPEHQRVQQRSESKKPPAKLQPR-NH2
SMILES: CCCCCCCC(=O)OC[C@H](NC(=O)[C@H](CO)NC(=O)[C@@H]1CCCN1)C(=O)N[C@@H](Cc1ccccc1)C(=O)N[C@@H](CC(C)C)C(=O)N[C@@H](CO)C(=O)N1CCC[C@H]1C(=O)N[C@@H](CCC(=O)O)C(=O)N[C@@H](Cc1c[nH]cn1)C(=O)N[C@@H](CCC(N)=O)C(=O)N[C@@H](CCCNC(=N)N)C(=O)N[C@H](C(=O)N[C@@H](CCC(N)=O)C(=O)N[C@@H](CCC(N)=O)C(=O)N[C@@H](CCCNC(=N)N)C(=O)N[C@@H](CO)C(=O)N[C@@H](CCC(=O)O)C(=O)N[C@@H](CO)C(=O)N[C@@H](CCCCN)C(=O)N[C@@H](CCCCN)C(=O)N1CCC[C@H]1C(=O)N1CCC[C@H]1C(=O)N[C@@H](C)C(=O)N[C@@H](CCCCN)C(=O)N[C@@H](CC(C)C)C(=O)N[C@@H](CCC(N)=O)C(=O)N1CCC[C@H]1C(=O)N[C@@H](CCCNC(=N)N)C(N)=O)C(C)C
B2: H-PS-S(octanoyl)-FLSPEHQRVQQRKESSKPPAKLQPR-NH2 (peptide)
peptide: H-PSS(Octanoyl)FLSPEHQRVQQRKESSKPPAKLQPR-NH2
SMILES: CCCCCCCC(=O)OC[C@H](NC(=O)[C@H](CO)NC(=O)[C@@H]1CCCN1)C(=O)N[C@@H](Cc1ccccc1)C(=O)N[C@@H](CC(C)C)C(=O)N[C@@H](CO)C(=O)N1CCC[C@H]1C(=O)N[C@@H](CCC(=O)O)C(=O)N[C@@H](Cc1c[nH]cn1)C(=O)N[C@@H](CCC(N)=O)C(=O)N[C@@H](CCCNC(=N)N)C(=O)N[C@H](C(=O)N[C@@H](CCC(N)=O)C(=O)N[C@@H](CCC(N)=O)C(=O)N[C@@H](CCCNC(=N)N)C(=O)N[C@@H](CCCCN)C(=O)N[C@@H](CCC(=O)O)C(=O)N[C@@H](CO)C(=O)N[C@@H](CO)C(=O)N[C@@H](CCCCN)C(=O)N1CCC[C@H]1C(=O)N1CCC[C@H]1C(=O)N[C@@H](C)C(=O)N[C@@H](CCCCN)C(=O)N[C@@H](CC(C)C)C(=O)N[C@@H](CCC(N)=O)C(=O)N1CCC[C@H]1C(=O)N[C@@H](CCCNC(=N)N)C(N)=O)C(C)C
B3: H-PS-S(octanoyl)-FLSPEHQRVQQRKESKSPPAKLQPR-NH2 (peptide)
peptide: H-PSS(Octanoyl)FLSPEHQRVQQRKESKSPPAKLQPR-NH2
SMILES: CCCCCCCC(=O)OC[C@H](NC(=O)[C@H](CO)NC(=O)[C@@H]1CCCN1)C(=O)N[C@@H](Cc1ccccc1)C(=O)N[C@@H](CC(C)C)C(=O)N[C@@H](CO)C(=O)N1CCC[C@H]1C(=O)N[C@@H](CCC(=O)O)C(=O)N[C@@H](Cc1c[nH]cn1)C(=O)N[C@@H](CCC(N)=O)C(=O)N[C@@H](CCCNC(=N)N)C(=O)N[C@H](C(=O)N[C@@H](CCC(N)=O)C(=O)N[C@@H](CCC(N)=O)C(=O)N[C@@H](CCCNC(=N)N)C(=O)N[C@@H](CCCCN)C(=O)N[C@@H](CCC(=O)O)C(=O)N[C@@H](CO)C(=O)N[C@@H](CCCCN)C(=O)N[C@@H](CO)C(=O)N1CCC[C@H]1C(=O)N1CCC[C@H]1C(=O)N[C@@H](C)C(=O)N[C@@H](CCCCN)C(=O)N[C@@H](CC(C)C)C(=O)N[C@@H](CCC(N)=O)C(=O)N1CCC[C@H]1C(=O)N[C@@H](CCCNC(=N)N)C(N)=O)C(C)C
B4: H-PS-S(octanoyl)-FLSPEHQRVQQRKESKKPPASLQPR-NH2 (peptide)
peptide: H-PSS(Octanoyl)FLSPEHQRVQQRKESKKPPASLQPR-NH2
SMILES: CCCCCCCC(=O)OC[C@H](NC(=O)[C@H](CO)NC(=O)[C@@H]1CCCN1)C(=O)N[C@@H](Cc1ccccc1)C(=O)N[C@@H](CC(C)C)C(=O)N[C@@H](CO)C(=O)N1CCC[C@H]1C(=O)N[C@@H](CCC(=O)O)C(=O)N[C@@H](Cc1c[nH]cn1)C(=O)N[C@@H](CCC(N)=O)C(=O)N[C@@H](CCCNC(=N)N)C(=O)N[C@H](C(=O)N[C@@H](CCC(N)=O)C(=O)N[C@@H](CCC(N)=O)C(=O)N[C@@H](CCCNC(=N)N)C(=O)N[C@@H](CCCCN)C(=O)N[C@@H](CCC(=O)O)C(=O)N[C@@H](CO)C(=O)N[C@@H](CCCCN)C(=O)N[C@@H](CCCCN)C(=O)N1CCC[C@H]1C(=O)N1CCC[C@H]1C(=O)N[C@@H](C)C(=O)N[C@@H](CO)C(=O)N[C@@H](CC(C)C)C(=O)N[C@@H](CCC(N)=O)C(=O)N1CCC[C@H]1C(=O)N[C@@H](CCCNC(=N)N)C(N)=O)C(C)C
B5: H-PS-S(octanoyl)-FLSPEHQRVQQRKESKKPPAKLQPS-NH2 (peptide)
peptide: H-PSS(Octanoyl)FLSPEHQRVQQRKESKKPPAKLQPS-NH2
SMILES: CCCCCCCC(=O)OC[C@H](NC(=O)[C@H](CO)NC(=O)[C@@H]1CCCN1)C(=O)N[C@@H](Cc1ccccc1)C(=O)N[C@@H](CC(C)C)C(=O)N[C@@H](CO)C(=O)N1CCC[C@H]1C(=O)N[C@@H](CCC(=O)O)C(=O)N[C@@H](Cc1c[nH]cn1)C(=O)N[C@@H](CCC(N)=O)C(=O)N[C@@H](CCCNC(=N)N)C(=O)N[C@H](C(=O)N[C@@H](CCC(N)=O)C(=O)N[C@@H](CCC(N)=O)C(=O)N[C@@H](CCCNC(=N)N)C(=O)N[C@@H](CCCCN)C(=O)N[C@@H](CCC(=O)O)C(=O)N[C@@H](CO)C(=O)N[C@@H](CCCCN)C(=O)N[C@@H](CCCCN)C(=O)N1CCC[C@H]1C(=O)N1CCC[C@H]1C(=O)N[C@@H](C)C(=O)N[C@@H](CCCCN)C(=O)N[C@@H](CC(C)C)C(=O)N[C@@H](CCC(N)=O)C(=O)N1CCC[C@H]1C(=O)N[C@@H](CO)C(N)=O)C(C)C
B6: H-PS-S(octanoyl)-FLSPYHQRVQQRKESKKPPAKLQPR-NH2 (peptide)
peptide: H-PSS(Octanoyl)FLSPYHQRVQQRKESKKPPAKLQPR-NH2
SMILES: CCCCCCCC(=O)OC[C@H](NC(=O)[C@H](CO)NC(=O)[C@@H]1CCCN1)C(=O)N[C@@H](Cc1ccccc1)C(=O)N[C@@H](CC(C)C)C(=O)N[C@@H](CO)C(=O)N1CCC[C@H]1C(=O)N[C@@H](Cc1ccc(O)cc1)C(=O)N[C@@H](Cc1c[nH]cn1)C(=O)N[C@@H](CCC(N)=O)C(=O)N[C@@H](CCCNC(=N)N)C(=O)N[C@H](C(=O)N[C@@H](CCC(N)=O)C(=O)N[C@@H](CCC(N)=O)C(=O)N[C@@H](CCCNC(=N)N)C(=O)N[C@@H](CCCCN)C(=O)N[C@@H](CCC(=O)O)C(=O)N[C@@H](CO)C(=O)N[C@@H](CCCCN)C(=O)N[C@@H](CCCCN)C(=O)N1CCC[C@H]1C(=O)N1CCC[C@H]1C(=O)N[C@@H](C)C(=O)N[C@@H](CCCCN)C(=O)N[C@@H](CC(C)C)C(=O)N[C@@H](CCC(N)=O)C(=O)N1CCC[C@H]1C(=O)N[C@@H](CCCNC(=N)N)C(N)=O)C(C)C
B7: H-PS-S(octanoyl)-FLSPEHQRVQYRKESKKPPAKLQPR-NH2 (peptide)
peptide: H-PSS(Octanoyl)FLSPEHQRVQYRKESKKPPAKLQPR-NH2
SMILES: CCCCCCCC(=O)OC[C@H](NC(=O)[C@H](CO)NC(=O)[C@@H]1CCCN1)C(=O)N[C@@H](Cc1ccccc1)C(=O)N[C@@H](CC(C)C)C(=O)N[C@@H](CO)C(=O)N1CCC[C@H]1C(=O)N[C@@H](CCC(=O)O)C(=O)N[C@@H](Cc1c[nH]cn1)C(=O)N[C@@H](CCC(N)=O)C(=O)N[C@@H](CCCNC(=N)N)C(=O)N[C@H](C(=O)N[C@@H](CCC(N)=O)C(=O)N[C@@H](Cc1ccc(O)cc1)C(=O)N[C@@H](CCCNC(=N)N)C(=O)N[C@@H](CCCCN)C(=O)N[C@@H](CCC(=O)O)C(=O)N[C@@H](CO)C(=O)N[C@@H](CCCCN)C(=O)N[C@@H](CCCCN)C(=O)N1CCC[C@H]1C(=O)N1CCC[C@H]1C(=O)N[C@@H](C)C(=O)N[C@@H](CCCCN)C(=O)N[C@@H](CC(C)C)C(=O)N[C@@H](CCC(N)=O)C(=O)N1CCC[C@H]1C(=O)N[C@@H](CCCNC(=N)N)C(N)=O)C(C)C
B8: H-PS-S(octanoyl)-FLSPEHQRVQQRKESKKPPAYLQPR-NH2 (peptide)
peptide: H-PSS(Octanoyl)FLSPEHQRVQQRKESKKPPAYLQPR-NH2
SMILES: CCCCCCCC(=O)OC[C@H](NC(=O)[C@H](CO)NC(=O)[C@@H]1CCCN1)C(=O)N[C@@H](Cc1ccccc1)C(=O)N[C@@H](CC(C)C)C(=O)N[C@@H](CO)C(=O)N1CCC[C@H]1C(=O)N[C@@H](CCC(=O)O)C(=O)N[C@@H](Cc1c[nH]cn1)C(=O)N[C@@H](CCC(N)=O)C(=O)N[C@@H](CCCNC(=N)N)C(=O)N[C@H](C(=O)N[C@@H](CCC(N)=O)C(=O)N[C@@H](CCC(N)=O)C(=O)N[C@@H](CCCNC(=N)N)C(=O)N[C@@H](CCCCN)C(=O)N[C@@H](CCC(=O)O)C(=O)N[C@@H](CO)C(=O)N[C@@H](CCCCN)C(=O)N[C@@H](CCCCN)C(=O)N1CCC[C@H]1C(=O)N1CCC[C@H]1C(=O)N[C@@H](C)C(=O)N[C@@H](Cc1ccc(O)cc1)C(=O)N[C@@H](CC(C)C)C(=O)N[C@@H](CCC(N)=O)C(=O)N1CCC[C@H]1C(=O)N[C@@H](CCCNC(=N)N)C(N)=O)C(C)C
B9: H-PS-S(octanoyl)-FLSPYHQRVQYRKESKKPPAYLQPR-NH2 (peptide)
peptide: H-PSS(Octanoyl)FLSPYHQRVQYRKESKKPPAYLQPR-NH2
SMILES: CCCCCCCC(=O)OC[C@H](NC(=O)[C@H](CO)NC(=O)[C@@H]1CCCN1)C(=O)N[C@@H](Cc1ccccc1)C(=O)N[C@@H](CC(C)C)C(=O)N[C@@H](CO)C(=O)N1CCC[C@H]1C(=O)N[C@@H](Cc1ccc(O)cc1)C(=O)N[C@@H](Cc1c[nH]cn1)C(=O)N[C@@H](CCC(N)=O)C(=O)N[C@@H](CCCNC(=N)N)C(=O)N[C@H](C(=O)N[C@@H](CCC(N)=O)C(=O)N[C@@H](Cc1ccc(O)cc1)C(=O)N[C@@H](CCCNC(=N)N)C(=O)N[C@@H](CCCCN)C(=O)N[C@@H](CCC(=O)O)C(=O)N[C@@H](CO)C(=O)N[C@@H](CCCCN)C(=O)N[C@@H](CCCCN)C(=O)N1CCC[C@H]1C(=O)N1CCC[C@H]1C(=O)N[C@@H](C)C(=O)N[C@@H](Cc1ccc(O)cc1)C(=O)N[C@@H](CC(C)C)C(=O)N[C@@H](CCC(N)=O)C(=O)N1CCC[C@H]1C(=O)N[C@@H](CCCNC(=N)N)C(N)=O)C(C)C

Biological target: human growth hormone secretagogue receptor type 1a (human, UniProt Q92847 1-366)
Assay: cell-based or functional assay

Sequence of human growth hormone secretagogue receptor type 1a (Q92847 whole entry): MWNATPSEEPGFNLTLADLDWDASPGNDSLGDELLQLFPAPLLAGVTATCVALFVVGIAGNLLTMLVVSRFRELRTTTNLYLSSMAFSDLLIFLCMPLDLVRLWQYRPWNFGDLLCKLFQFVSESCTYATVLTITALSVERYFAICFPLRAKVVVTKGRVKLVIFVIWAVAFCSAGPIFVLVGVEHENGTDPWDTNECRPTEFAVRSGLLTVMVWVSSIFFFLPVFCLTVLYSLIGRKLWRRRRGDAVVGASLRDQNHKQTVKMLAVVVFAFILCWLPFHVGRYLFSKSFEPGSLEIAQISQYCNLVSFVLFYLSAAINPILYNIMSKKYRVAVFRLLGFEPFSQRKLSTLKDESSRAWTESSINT

Binder	EC50 (nM); Ca2+ induction in HEK293 cells stably expressing the human ghrelin receptor [nM]
B1	0.182
B2	0.095
B3	0.086
B4	0.183
B5	0.039
B6	0.719
B7	0.198
XSSFLSPEHQRVQQRKESKKPPAKLQPR (DPro at position 1; Ser(O-octanoyl) at position 3; C-terminal -OH) [H-[DPro]-S-S(O-octanoyl)-FLSPEHQRVQQRKESKKPPAKLQPR-OH]	0.786
B8	0.252
B9	0.594
H-PSS(Octyl)FLSPEHQRVQQRKESKKPPAKLQPR-NH2 [H-PS-S(O-octyl)-FLSPEHQRVQQRKESKKPPAKLQPR-NH2]	0.396
